# Results reported in publication PMC3236198.
# Target: ΔC SSB (Escherichia coli) (UniProt P0AGE0)
# Assay: SEC
substance,measurement,value
ΔC SSB (from UniProt P0AGE0 1-113) (domain or fragment),stoichiometry N,4
